Experimental data: patent US20110171235A1 (University of California, published 2011)
Residue numbers refer to the chain shown, from its start. Like-named read-outs stand apart in the source and are kept apart here.

Columns and labels:
[1] = molecular target: T1, botulinum neurotoxin type A (BoNT/A), purified holotoxin (Clostridium botulinum, UniProt P0DPI0 2-1296)
[2] = molecular target: T1, botulinum neurotoxin type A (BoNT/A), …; assay: cell-based or functional assay
[3] = molecular target: T1, botulinum neurotoxin type A (BoNT/A), …; assay: yeast display
[4] = molecular target: T1, botulinum neurotoxin type A (BoNT/A), …; remark: listed apart in the source
[5] = molecular target: T1, botulinum neurotoxin type A (BoNT/A), …; assay: yeast displayed scFv, flow cytometry
[6] = molecular target: T1, botulinum neurotoxin type A (BoNT/A), …; assay: Kinexa
[7] = molecular target: T1, botulinum neurotoxin type A (BoNT/A), …; remark: listed apart in the source

B1: 3D12 scFv (scFv, V domains shown)
VH: QVQLVQSGGGVVHPGRSLKLSCAGSGFTFSDYDMHWVRQAPGKGLEWVAVMWFDGTEKYSAESVKGRFTISRDNSKNTLFLQMNSLRADDTAVYYCAREPDWLLWGDRGALDVWGQGTTVTVSS
VL: DIVMTQSPSTLSASVGDRVTITCRASQSISSWLAWYQQKPGKAPKLLMYEASSLESGVPSRFSGSGSGTEFTLTISSLQPDDFAAYYCQHYNTYPYTFGQGTKLEIK
Kd [1]: 0.943 nM | prolongation of time to neuroparalysis [2]: 1.5 fold

B2: C25 scFv (scFv)
scFv: QVQLQESGGGLVKPGGSLKLSCAASGFTFSDYYMYWVRQTPEKRLEWVATISDGGSYTYYPDSVKGRFTISRDNAKNNLYLQMSSLKSEDTAMYYCSRYRYDDAMDYWGQGTTVTVSSGGGGSGGGGSGGGGSDIELTQSPASLAVSLGQRATISCRASESVDSYGHSFMQWYQQKPGQPPKLLIYRASNLEPGIPARFSGSGSGTDFTLTINPVEADDVATYYCQQSNEDPFTFGSGTKLEIKR
prolongation of time to neuroparalysis [2]: 2.7 fold

B3: AR4 scFv (scFv, V domains shown)
VH: QVQLQESGGGLVQPGGSLRLSCAASGFTFEEHYMYWVRQAPGKGLEWVATISDGGSYTYYPDSVEGRFTTSRDNSKNTLYLQMNSLRAEDTAIYYCSRYRYDDAMDYWGQGTLVTVSS
VL: EIVLTQSPATLSLSPGERATISCRASESVDSYGHSFMQWYQQKPGQAPRLLIYRASNLEPGIPARFSGSGSGTDFTLTISSLEPEDFAVYYCQQGNEVPFTFGQGTKVEIK
fold higher affinity than HuC25 scFv [3]: 37 fold | Kd [4]: 0.0226 nM | Kd [5]: 0.023 nM

B4: HuC25 scFv (scFv, V domains shown)
VH: B3 VH with E30S, E31D, H32Y, E65K, T70I, I93M
VL: B3 VL with G95S, V98D
Kd [5]: 0.844 nM

B5: AR1 scFv (scFv, V domains shown)
VH: B3 VH with E30S, E31D, H32Y, E65K, T70I
VL: B3 VL
Kd [5]: 0.169 nM | fold improvement of KD against HuC25 [5]: 5 fold

B6: AR2 scFv (scFv, V domains shown)
VH: B3 VH with E30S, E31D, E65K
VL: B3 VL
Kd [5]: 0.0614 nM | fold increase against parental AR1 [5]: 2.8 fold

B7: AR3 scFv (scFv, V domains shown)
VH: B3 VH with E30G
VL: B3 VL
Kd [5]: 0.019 nM

B8: AR4 IgG (antibody, V domains shown)
VH: B3 VH
VL: EIVLTQSPATLSLSPGERATISCRASESVDSYGHSFMQWYQQKPGQAPRLLIYRASNLEPGIPARFSGSGSGTDFTLTISSLEPEDFAVYYCQQGNEVPFTFGQGTKVEIKR
fold higher affinity than HuC25 IgG [6]: 34 fold

B9: RAZ1 IgG (antibody, V domains shown)
VH: B1 VH
VL: DIVMTQSPSTLSASVGDRVTITCWASQSISSRLAWYQQKPGKAPKLLMYEATSLGSGVPSRFSGSGSGTEFTLTISSLQPDDFAAYYCQHYDTYPYTFGQGTKLEIKR
fold higher affinity than 3D12 IgG [7]: 35 fold
